# Test results from patent US20060252916A1, “Modified glucagon-like peptide-1 analogs” (ELI LILLY AND COMPANY, priority 2002, published 2006).
# No end group written: not given here.
# Target: T1, human GLP-1 receptor (Homo sapiens, UniProt P43220)
# T1 construct: expressed in transfected cells; host or cells: HEK-293 Aurora CRE-BLAM cells
# Assay: In vitro potency, CRE-BLAM fluorescence assay
# Type: cell-based
# Settings: HEK-293 Aurora CRE-BLAM cells expressing the human GLP-1 receptor; 5 hours incubation; control Val^8-GLP-1(7-37)OH
# Method: “In vitro potency” as used herein is the measure of the ability of a peptide to activate the GLP-1 receptor in a cell-based assay. In vitro potency is expressed as the “EC50” which is the effective concentration of compound that results in 50% activity in a single dose-response experiment. For the purposes of the present invention, in vitro potency is determined using a fluorescence assay that employs HEK-293 Aurora CRE-BLAM cells that stably express the human GLP-1 receptor. These HEK-293 cells have stably integrated a DNA vector having a cAMP response element (CRE) driving expression of the β-lactamase (BLAM) gene. The interaction of a GLP-1 agonist with the receptor initiates a signal that results in activation of the cAMP response element and subsequent expression of β-lactamase. The β-lactamase CCF2/AM substrate that emits fluorescence when it is cleaved by β-lactamase (Aurora Biosciences Corp.) can then be added to cells that have been exposed to a specific amount of GLP-1 agonist to provide a measure of GLP-1 agonist potency. […]
# HEK-293 Aurora CRE-BLAM cells expressing the human GLP-1 receptor are seeded at 20,000 to 40,000 cells/well/100 μl into a 96 well black clear bottom plate. […] Generally, fourteen dilutions containing from […] to 30 nanomolar GLP-1 compound were used to generate a dose response curve from which EC50 values could be determined. […]
# T1 sequence (P43220 24-463): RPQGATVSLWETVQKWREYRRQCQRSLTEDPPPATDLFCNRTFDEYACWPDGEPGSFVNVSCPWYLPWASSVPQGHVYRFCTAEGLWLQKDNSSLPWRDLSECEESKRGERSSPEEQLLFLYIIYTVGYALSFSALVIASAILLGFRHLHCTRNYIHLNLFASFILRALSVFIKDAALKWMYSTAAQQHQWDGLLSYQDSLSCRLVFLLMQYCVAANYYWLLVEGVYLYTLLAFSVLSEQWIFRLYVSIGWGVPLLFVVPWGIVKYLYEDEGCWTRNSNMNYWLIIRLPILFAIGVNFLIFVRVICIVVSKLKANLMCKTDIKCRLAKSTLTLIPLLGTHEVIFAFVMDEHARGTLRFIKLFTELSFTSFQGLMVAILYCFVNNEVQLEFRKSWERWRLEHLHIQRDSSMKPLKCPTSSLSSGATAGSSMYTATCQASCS
substance,measurement,value
GLP-1 compound-HSA conjugate of Example 3: Human serum albumin conjugate of the lysine-modified GLP-1 compound SEQ ID NO:22 of Example 3 (HVEGTFTSDVSSYLEEQAAKEFIAWLIKGRGK(3‑(2-pyridyldithio)propanamide)-NH2; also: conjugated to human serum albumin),EC50 values compared with Val^8-GLP-1(7-37)OH,about the same as the activity of Val^8-GLP-1(7-37)OH
